# Paper PMC6651773, “2-Ketogluconate Kinase from Cupriavidus necator H16: Purification, Characterization, and Exploration of Its Substrate Specificity” (Molecules, 2019)
# B1: KGUKCnec (2-ketogluconate kinase from C. necator H16) (Cupriavidus necator H16) (protein)
# chain: MSTDLDVVTLGEAMLMLVAGEAGPLEGAQTFHKRTAGAETNVAIGLSRLGLKVGWASRLGDDSMARYLLGEMQREGVDCSQVVCEPGERTGFQFKGRVDDGSDPPVEYHRRGSAASRMNPEHLDGRWLRRSRHLHVTGVFPALAAGTQAATRQAIATMQAAGRTISFDPNLRPTLWASPELMRETLNDLAQQCDWVLPGIEEGRFLTGHAEPERIAAFYRARGARLVVVKLGADGAYFDGEAGTGHVEAFSVEHVVDTVGAGDGFAVGVISALLEGRPVRDAVRRGAWIGARAVQVRGDTEGLPTHAQLAAASL
# notes: full-length ORF (PCR primers kguK-NdeI 5' […] 3' / kguK-BamHI 5' […] 3'
# Key:
# Experiment in all cases: purified protein
# Format in all cases: biochemical, Cupriavidus necator
# purified protein [1] = substrate: O=C(O)C(=O)[C@@H](O)[C@H](O)[C@H](O)CO; conditions: ATP 1.25 mM, Mg2+ 5 mM, Tris-HCl pH 8.0, KCl 50 mM, 25 °C, sigmoid, Hill n = 1.4
# purified protein [2] = substrate: O=C(O)C(=O)C[C@@H](O)[C@H](O)CO; conditions: ATP 1.25 mM, Mg2+ 5 mM, Tris-HCl pH 8.0, KCl 50 mM, 25 °C
# purified protein [3] = substrate: O=C(O)C(=O)[C@H](O)[C@@H](O)[C@H](O)CO; conditions: ATP 1.25 mM, Mg2+ 5 mM, Tris-HCl pH 8.0, KCl 50 mM, 25 °C
# purified protein [4] = substrate: O=C(O)C(=O)C[C@H](O)[C@H](O)CO; conditions: ATP 1.25 mM, Mg2+ 5 mM, Tris-HCl pH 8.0, KCl 50 mM, 25 °C
# purified protein [5] = substrate: Nc1ncnc2c1ncn2[C@@H]1O[C@H](COP(=O)(O)OP(=O)(O)OP(=O)(O)O)[C@@H](O)[C@H]1O; conditions: KG 1.25 mM, Mg2+ 5 mM, Tris-HCl pH 8.0, KCl 50 mM, 25 °C
protein,measurement,setting,value
B1,K0.5,purified protein [1],0.35 ± 0.03 mM
same,Vmax,purified protein [1],10.4 µmol/min/mg
same,kcat,purified protein [1],5.8 ± 0.2 s⁻¹
same,kcat/Km,purified protein [1],16800 ± 1300 M⁻¹ s⁻¹
same,Km,purified protein [2],25000 ± 4000 µM
same,Vmax,purified protein [2],3.7 µmol/min/mg
same,kcat,purified protein [2],2.1 ± 0.2 s⁻¹
same,kcat/Km,purified protein [2],83 ± 20 M⁻¹ s⁻¹
same,Km,purified protein [3],4000 ± 1000 µM
same,Vmax,purified protein [3],1.9 µmol/min/mg
same,kcat,purified protein [3],1.1 ± 0.1 s⁻¹
same,kcat/Km,purified protein [3],246 ± 70 M⁻¹ s⁻¹
same,Km,purified protein [4],1400 ± 200 µM
same,Vmax,purified protein [4],18.2 µmol/min/mg
same,kcat,purified protein [4],10.2 ± 0.5 s⁻¹
same,kcat/Km,purified protein [4],7370 ± 970 M⁻¹ s⁻¹
same,Km,purified protein [5],73 ± 2 µM
same,Vmax,purified protein [5],10.2 µmol/min/mg
same,kcat,purified protein [5],5.71 ± 0.05 s⁻¹
same,kcat/Km,purified protein [5],78200 ± 2500 M⁻¹ s⁻¹
